This is an account of results in paper PMC8556674.

Test [1] has as its target mchr-Miro2 (human) (UniProt Q8IXI1).
The next test has as its target mchr-Miro2 A13V (human) (UniProt Q8IXI1).
The target in test [2] is mchr-Miro2 (human) (UniProt Q8IXI1). The source holds these as a separate data set.
mchr-Miro2 (human), sequence (Q8IXI1 whole entry): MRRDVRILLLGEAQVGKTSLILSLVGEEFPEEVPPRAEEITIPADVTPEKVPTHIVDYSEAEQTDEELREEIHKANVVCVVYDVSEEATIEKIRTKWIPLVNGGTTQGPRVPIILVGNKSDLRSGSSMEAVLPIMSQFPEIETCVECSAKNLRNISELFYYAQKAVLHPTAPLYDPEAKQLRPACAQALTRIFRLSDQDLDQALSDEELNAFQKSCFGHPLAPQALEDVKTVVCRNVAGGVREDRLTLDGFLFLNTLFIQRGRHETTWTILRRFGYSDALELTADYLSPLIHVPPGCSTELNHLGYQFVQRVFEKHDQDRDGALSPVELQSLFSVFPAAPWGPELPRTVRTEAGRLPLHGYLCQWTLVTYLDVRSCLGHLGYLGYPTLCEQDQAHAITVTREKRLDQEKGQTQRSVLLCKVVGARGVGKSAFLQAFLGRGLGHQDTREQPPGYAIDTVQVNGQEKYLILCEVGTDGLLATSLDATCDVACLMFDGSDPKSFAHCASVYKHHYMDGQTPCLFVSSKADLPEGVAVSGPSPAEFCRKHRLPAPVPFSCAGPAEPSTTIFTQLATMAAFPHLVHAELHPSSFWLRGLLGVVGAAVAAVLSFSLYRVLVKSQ

mchr-Miro2 A13V (human), sequence (Q8IXI1 whole entry A13V): as the sequence (Q8IXI1 whole entry) above, with A13V counted along it

In the test with mchr-Miro2 (human) [1], “MYO19^898–970-GFP mut. (K923, R927 and K928 mutated to alanine) (from UniProt Q96H55 898-970) (domain or fragment)” returned an FRAP immobile fraction, live HeLa cells of 0.04 and an FRAP t1/2 of mitochondrial GFP fluorescence, live HeLa cells of 1.5 s.
In the case of “MYO19^898–970-GFP (from UniProt Q96H55 898-970) (domain or fragment)”, in the test with mchr-Miro2 (human) [1], the FRAP immobile fraction, live HeLa cells came to 0.03 and the FRAP t1/2 of mitochondrial GFP fluorescence, live HeLa cells is 9.2 s. The substance further yielded an FRAP immobile fraction, live HeLa cells with mchr-Miro2 A13V (human) of 0.14. The same substance yielded a PARF immobile fraction, HeLa cells, 25 uM digitonin in the test with mchr-Miro2 (human) [2] of 0.33.
